Assays:
[1] = target: 30Kc19 C76A protein (Bombyx mori); assay: native gel or EMSA
[2] = target: recombinant 30Kc19 protein (Bombyx mori); assay: non-reducing SDS-PAGE
[3] = target: recombinant 30Kc19 protein (Bombyx mori); assay: native gel or EMSA
[4] = target: recombinant 30Kc19 protein (Bombyx mori); assay: native gel or EMSA; remark: listed apart in the source
[5] = target: recombinant 30Kc19 protein (Bombyx mori); assay: native gel or EMSA; remark: listed apart in the source

Row | stoichiometry N [1] | stoichiometry N [2] | stoichiometry N [3] | stoichiometry N [4] | stoichiometry N [5] | Substance
1 | 2 | – | – | – | – | 30Kc19 C76A protein (natural protein)
2 | – | 2 | 2 | 2 | 2 | recombinant 30Kc19 protein (natural protein)

From article PMC4283735
